Values of other authors as cited in article PMC9101112.

Columns and labels:
Experiment in all cases: enzyme inhibition
Trp-Val-Tyr-Pro-Trp = molecular target: Trp-Val-Tyr-Pro-Trp
Ile-Val-Tyr-Pro-Trp = molecular target: Ile-Val-Tyr-Pro-Trp
tynorphin = molecular target: tynorphin
spinorphin (Bos taurus) = molecular target: spinorphin (Bos taurus)
valorphin (Bos taurus) = molecular target: valorphin (Bos taurus)

Ki (Trp-Val-Tyr-Pro-Trp) [nM] | Ki (Ile-Val-Tyr-Pro-Trp) [nM] | Ki (tynorphin) [nM] | Ki (spinorphin (Bos taurus)) [nM] | Ki (valorphin (Bos taurus)) [nM] | Substance
126 | 100 | 2670 |  |  | DPP III (from UniProt O55096)
 |  |  | 2420 | 49 | DPP III (from UniProt Q9NY33)
